For the experiment, the target named is NADPH-cytochrome P450 reductase (UniProt P00388).
Sequence of UniProt P00388 (P00388 whole entry): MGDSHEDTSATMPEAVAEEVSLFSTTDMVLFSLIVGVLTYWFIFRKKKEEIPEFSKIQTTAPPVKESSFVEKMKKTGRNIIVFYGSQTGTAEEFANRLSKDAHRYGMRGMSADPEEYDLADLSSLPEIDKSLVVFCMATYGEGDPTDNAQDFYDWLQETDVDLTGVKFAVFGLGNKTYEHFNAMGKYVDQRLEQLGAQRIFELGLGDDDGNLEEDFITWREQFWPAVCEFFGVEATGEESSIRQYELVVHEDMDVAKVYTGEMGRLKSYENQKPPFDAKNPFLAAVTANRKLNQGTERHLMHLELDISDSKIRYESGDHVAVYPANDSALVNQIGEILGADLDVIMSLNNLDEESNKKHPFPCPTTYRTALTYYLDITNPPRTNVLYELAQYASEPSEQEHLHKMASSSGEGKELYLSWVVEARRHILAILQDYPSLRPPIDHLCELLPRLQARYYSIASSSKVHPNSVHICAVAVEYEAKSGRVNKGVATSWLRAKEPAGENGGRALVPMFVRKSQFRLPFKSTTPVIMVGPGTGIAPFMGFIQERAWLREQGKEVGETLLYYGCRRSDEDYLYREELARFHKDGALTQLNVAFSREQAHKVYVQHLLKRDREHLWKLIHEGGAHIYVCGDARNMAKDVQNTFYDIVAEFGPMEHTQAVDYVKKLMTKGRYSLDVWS
As to “CYP3A4 Y430F mutant (from UniProt P08684 1-503) (enzyme)”, the % of CPR-dependent versus dithionite-dependent reduced P450-CO spectrum was 41%.
The figure for “CYP3A4 Y430V mutant (from UniProt P08684 1-503) (enzyme)” is 22%; for “human cytochrome P450 3A4, wild type, untreated (from UniProt P08684 1-503) (enzyme)” it is 88%.
